The source of these data is patent US6989260B2, “Human poly(ADP-ribose) polymerase 2 materials and methods” (ICOS Corporation, priority 1999, dated 2006).

The data set has as its system hPARP2 poly(ADP-ribose) polymerase activity. As to the kind of experiment: Poly(ADP-ribose) polymerase activity assay (32P-NAD+ incorporation, SDS-PAGE, autoradiography). The format is biochemical, human. The settings on record: 250 ng PARP1A/PARP2B or 25 ng FB-hPARP2, 10 min at room temperature, 2.5 μM unlabeled NAD+, E. coli Strain B DNA, gamma-[32P]-NAD+. The source says:
The PARP activity of hPARP2, or some substructure thereof, can be measured by the ability of that component to incorporate the ADP-ribose unit from NAD into polymers of ADP-ribose coupled to a protein substrate.
A fusion protein, designated PARP1A/PARP2B, containing aa 1–662 of hPARP1 (SEQ ID NO:25) fused upstream of aa 230–583 of hPARP2 (SEQ ID NO:2) was used in the measurement of hPARP2 poly(ADP-ribose) polymerase activity. PARP1A/PARP2B contained the DNA binding domain (aa 1–373 of SEQ ID NO:25) and automodification domain (aa 373–525 of SEQ ID NO:25) of hPARP1 and the putative catalytic domain of hPARP2 (aa […] of SEQ ID NO:2).
In addition to PARP1A/PARP2B, a full-length hPARP2 protein fused to a poly-His tag (FB-hPARP2) was constructed for use in the measurement of hPARP2 poly(ADP-ribose) polymerase activity. The construction of FB-hPARP2 was carried out as follows.
For poly(ADP-ribose) polymerase activity assays, reagents were obtained from Sigma, unless otherwise indicated. PARP1A/PARP2B (250 ng) or FB-hPARP2 (25 ng) protein was incubated for 10 min at room temperature in assay buffer (total volume of 20 μL) containing 100 mM Tris, pH 8.0, 1 mM MgCl2, 10% glycerol, 1.5 mM dithiothreitol (Boehringer Mannheim/Roche Molecular Biochemicals, Indianapolis, Ind.), 2.5 μM unlabeled NAD^+, 16.7 μg/mL E. coli Strain B DNA, and 0.33 μCi gamma-[^32P]-NAD^+ (NEN, Boston, Mass.). […]

On to “PARP1A/PARP2B: fusion protein containing aa 1–662 of hPARP1 fused upstream of aa 230–583 of hPARP2; His tag leader, Strep-tag (SEQ ID NO:47)”, for which the “intrinsic poly(ADP-ribose) polymerase activity (ability to produce poly(ADP-ribose) polymers)” value was “possessed intrinsic poly(ADP-ribose) polymerase activity”.

B1: FB-hPARP2: full-length hPARP2 protein fused to a poly-His tag (SEQ ID NO:59) (protein)
chain: MRGSHHHHHHDYDIPTTENLYFQGAMDPEFKGLRRPMAARRRRSTGGGRARALNESKRVNNGNTAPEDSSPAKKTRRCQRQESKKMPVAGGKANKDRTEDKQDGMPGRSWASKRVSESVKALLLKGKAPVDPECTAKVGKAHVYCEGNDVYDVMLNQTNLQFNNNKYYLIQLLEDDAQRNFSVWMRWGRVGKMGQHSLVACSGNLNKAKEIFQKKFLDKTKNNWEDREKFEKVPGKYDMLQMDYATNTQDEEETKKEESLKSPLKPESQLDLRVQELIKLICNVQAMEEMMMEMKYNTKKAPLGKLTVAQIKAGYQSLKKIEDCIRAGQHGRALMEACNEFYTRIPHDFGLRTPPLIRTQKELSEKIQLLEALGDIEIAIKLVKTELQSPEHPLDQHYRNLHCALRPLDHESYEFKVISQYLQSTHAPTHSDYTMTLLDLFEVEKDGEKEAFREDLHNRMLLWHGSRMSNWVGILSHGLRIAPPEAPITGYMFGKGIYFADMSSKSANYCFASRLKNTGLLLLSEVALGQCNELLEANPKAEGLLQGKHSTKGLGKMAPSSAHFVTLNGSTVPLGPASDTGILNPDGYTLNYNEYIVYNPNQVRMRYLLKVQFNFLQLW
modifications: poly-His tag
Consider B1, for which the “intrinsic poly(ADP-ribose) polymerase activity (ability to produce poly(ADP-ribose) polymers)” value is reported as “possessed intrinsic poly(ADP-ribose) polymerase activity”.
